As a reminder, the stoichiometry N is a count of units in the complex or per binding partner.

Data on one protein can be found in paper PMC13061601, “CLCC1 promotes hepatic neutral lipid flux and nuclear pore complex assembly” (Nature, 2026).

This series concerns the molecule itself. Kind of series: migration on a gel, blot (Supplementary Fig. 8c); without reducing agent; sample and gel conditions not shown.

B1: CLCC1 (natural protein, human, UniProt Q96S66 19-551, looked up)
chain: HDDDWIDPTDMLNYDAASGTMRKSQAKYGISGEKDVSPDLSCADEISECYHKLDSLTYKIDECEKKKREDYESQSNPVFRRYLNKILIEAGKLGLPDENKGDMHYDAEIILKRETLLEIQKFLNGEDWKPGALDDALSDILINFKFHDFETWKWRFEDSFGVDPYNVLMVLLCLLCIVVLVATELWTYVRWYTQLRRVLIISFLFSLGWNWMYLYKLAFAQHQAEVAKMEPLNNVCAKKMDWTGSIWEWFRSSWTYKDDPCQKYYELLLVNPIWLVPPTKALAVTFTTFVTEPLKHIGKGTGEFIKALMKEIPALLHLPVLIIMALAILSFCYGAGKSVHVLRHIGGPESEPPQALRPRDRRRQEEIDYRPDGGAGDADFHYRGQMGPTEQGPYAKTYEGRREILRERDVDLRFQTGNKSPEVLRAFDVPDAEAREHPTVVPSHKSPVLDTKPKETGGILGEGTPKESSTESSQSAKPVSGQDTSGNTEGSPAAEKAQLKSEAAGSPDQGSTYSPARGVAGPRGQDPVSSPCG
notes: CLCC1, human
Consider B1, for which the “stoichiometry N” value came out at 2.
